Laboratory results: patent US20210238279A1 (Johns Hopkins, published 2021)
Where a chain is given by its changes, count along the chain named.

What was measured:
Experiment in all cases: immunoblot of HEK293 lysates over-expressing FLAG-tagged ZnT homologs
[1] = biological target: T1, human ZnT2 with C-terminal FLAG tag (human, UniProt Q9BRI3 1-372, limits assumed)
T1 construct: Commercial HEK293 lysate (Origene), SDS-denatured on immunoblots; not shown: C-terminal FLAG octapeptide
T1 sequence (looked up): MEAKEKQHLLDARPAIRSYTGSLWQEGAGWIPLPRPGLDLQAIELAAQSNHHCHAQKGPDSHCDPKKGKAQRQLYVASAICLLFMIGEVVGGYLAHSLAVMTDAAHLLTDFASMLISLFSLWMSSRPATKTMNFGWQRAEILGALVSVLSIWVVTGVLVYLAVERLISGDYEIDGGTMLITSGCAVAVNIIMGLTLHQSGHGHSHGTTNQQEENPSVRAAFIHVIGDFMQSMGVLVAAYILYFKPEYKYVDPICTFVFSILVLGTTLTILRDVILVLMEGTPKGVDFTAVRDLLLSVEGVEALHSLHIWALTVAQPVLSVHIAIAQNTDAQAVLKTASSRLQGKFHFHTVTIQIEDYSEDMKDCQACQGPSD
From the text: (§1) FIG. 7A-7D. mAb binding specificities (FIG. 7A) mAb binding to ZnT8-His immobilized to Ni-NTA plate. Bound mAb20 (red) or mAb39 (magenta) was detected by an HRP-conjugated secondary antibody. Solid lines are least-squares fits of binding datapoints to a one-component binding process. Error bars are standard errors (n=8). (FIG. 7B) SDS-denatured mouse ZnT8-His (labeled as M) and human ZnT8-His (labeled as H) on immunoblots were detected by mAb20 or mAb39 as indicated. […] (FIG. 7C) Detection of endogenous human ZnT8 in EndoC-βH cells by mAb20 or […] immunoblotting. An equal amount of EndoC-βH lysate (5 μg total protein) was loaded to each lane. (FIG. 7D) Immunoblotting of HEK lysates with or with over-expression of a ZnT homolog as indicated. An approximately equal amount of total lysate protein (5 μg) was located to each lane, probed by either mAb20, mAb39, or anti-FALG antibody as indicated. FIG. 8. HTRF response to human ZnT8, mouse ZnT8 and human ZnT3.
(§2) Immunoblotting. SDS-solubilized cell lysate of EndoC-β cells or HEK293 cells over-expressing ZnT8 was subjected to SDS-PAGE and probed with a 1:3000 mAb20 or mAb39, followed by 1:3000 anti-mouse HRP-conjugated secondary antibody (GE Healthcare cat. #NA931V). A duplicated gel was Coomassie-stained to show an equal protein loading for each lane ([…]). To compare the mAb20 or mAb39 reactivities to different ZnT homolog, we used commercial HEK293 lysates with lentivirus-mediated over-expression of ZnT1, ZnT2, ZnT3, ZnT4, ZnT7, ZnT8, ZnT10, each is tagged by a Flag tag at the C-terminus (Origene, catalog nos. LY500001, LC412033, LC423751, LC401170, LY415673, LC428544, LC406320, and LC412886). Approximately equal amounts of total protein (5 μg) was loaded to each lane, and then probed with mAb20, mAb39, or anti-FLAG antibody (Origene, catalog no. TA50011-100) as above. The expression levels of ZnT homologs varied with ZnT1 most abundantly expressed.

[2] = biological target: T2, human ZnT3 with C-terminal FLAG tag (human, UniProt Q99726 1-388)
T2 construct: Commercial HEK293 lysate (Origene), SDS-denatured on immunoblots; not shown: C-terminal FLAG octapeptide
T2 sequence (looked up): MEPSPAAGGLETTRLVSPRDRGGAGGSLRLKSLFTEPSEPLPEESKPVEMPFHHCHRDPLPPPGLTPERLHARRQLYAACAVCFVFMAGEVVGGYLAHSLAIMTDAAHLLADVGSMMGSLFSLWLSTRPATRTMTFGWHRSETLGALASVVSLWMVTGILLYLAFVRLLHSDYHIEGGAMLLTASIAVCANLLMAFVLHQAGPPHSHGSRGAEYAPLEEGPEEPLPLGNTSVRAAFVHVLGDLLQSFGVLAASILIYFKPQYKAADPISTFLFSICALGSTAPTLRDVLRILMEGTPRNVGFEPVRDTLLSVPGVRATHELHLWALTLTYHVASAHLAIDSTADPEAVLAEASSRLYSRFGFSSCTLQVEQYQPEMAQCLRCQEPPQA
From the text: as §1, §2

[3] = biological target: T3, human ZnT4 with C-terminal FLAG tag (human, UniProt O14863 1-429)
T3 construct: Commercial HEK293 lysate (Origene), SDS-denatured on immunoblots; not shown: C-terminal FLAG octapeptide
T3 sequence (looked up): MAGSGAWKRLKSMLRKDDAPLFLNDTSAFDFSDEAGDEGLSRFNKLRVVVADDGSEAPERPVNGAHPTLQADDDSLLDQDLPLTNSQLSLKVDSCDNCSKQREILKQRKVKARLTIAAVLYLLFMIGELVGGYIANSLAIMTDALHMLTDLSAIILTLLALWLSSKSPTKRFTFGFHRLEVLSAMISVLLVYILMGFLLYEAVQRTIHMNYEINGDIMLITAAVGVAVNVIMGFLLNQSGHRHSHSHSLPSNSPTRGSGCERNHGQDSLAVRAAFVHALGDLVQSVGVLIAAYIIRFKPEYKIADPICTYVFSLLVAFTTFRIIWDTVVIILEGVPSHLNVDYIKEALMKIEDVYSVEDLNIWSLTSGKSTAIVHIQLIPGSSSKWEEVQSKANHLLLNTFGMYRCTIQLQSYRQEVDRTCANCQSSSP
From the text: as §1, §2

[4] = biological target: T4, human ZnT10 with C-terminal FLAG tag (human, UniProt Q6XR72 1-485, limits assumed)
T4 construct: Commercial HEK293 lysate (Origene), SDS-denatured on immunoblots; not shown: C-terminal FLAG octapeptide
T4 sequence (looked up): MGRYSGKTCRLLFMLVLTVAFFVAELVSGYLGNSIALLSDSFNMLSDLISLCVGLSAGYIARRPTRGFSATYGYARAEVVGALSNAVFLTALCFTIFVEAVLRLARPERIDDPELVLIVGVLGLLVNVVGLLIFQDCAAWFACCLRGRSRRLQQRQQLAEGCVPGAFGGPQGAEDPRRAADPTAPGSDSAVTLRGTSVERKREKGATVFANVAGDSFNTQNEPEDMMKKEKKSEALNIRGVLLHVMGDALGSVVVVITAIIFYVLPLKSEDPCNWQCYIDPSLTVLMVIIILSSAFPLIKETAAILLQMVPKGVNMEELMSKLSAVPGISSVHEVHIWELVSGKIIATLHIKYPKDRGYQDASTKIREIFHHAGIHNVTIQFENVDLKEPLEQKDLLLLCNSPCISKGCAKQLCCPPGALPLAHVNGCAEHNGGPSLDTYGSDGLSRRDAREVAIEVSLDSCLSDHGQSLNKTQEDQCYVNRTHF
From the text: as §1, §2

Measured: binding result

B1: mAb20 (antibody, V domains shown)
VH: QIQLVQSGPELKKPGETVKISCKASGYIFTNYPMHWVKQAPGKGLKWMGWINTYSGVPTHADDFKGRFAFSLETSANSAFLQINNLKNEDTATYFCTRSRITPTGGYAMDYWGQGTSVTVSS
VL: DVVMTQTPLSLPVSLGDQASISCRSSQSLVHSNGNTYLHWYLQKPGQSPNLLISKVSNRFSGVPERFSGSGSGTDFTLKISRVEAEDLGVYFCSQNTHVPWTFGGGTKLEIKR
notes: Mouse hybridoma mAb purified on protein A/G; In some assays it was labelled with Alexa Fluor 488 or terbium cryptate; also called monoclonal antibody mAb20; anti-ZnT8 mAb20
no binding: all assays above

B2: mAb39 (antibody, V domains shown)
VH: QVQLQQPGAELVKPGASVKLSCKASGYSFTTYWMHWVKQRPGQGLEWVGDINPRNGRTNYNEKSKSKATLTVDISSSTVYMQVSSLTSEDSAVYYCAIWSGAMDYWGPGTSVTVSS
VL: B1 VL with A19P, R24K, S32N, N50K, S54Y, E65D, N96T, W101P
notes: Mouse hybridoma mAb purified on protein A/G; In some assays it was labelled with Alexa Fluor 555 or d2; also called monoclonal antibody mAb39; anti-ZnT8 mAb39
no binding: all assays above
